Experimental data as given in patent publication US20220177587A1, “METHODS AND USES OF VARIANT CD80 FUSION PROTEINS AND RELATED CONSTRUCTS” (Alpine Immune Sciences, Inc., priority 2018, published 2022).
Substitutions are numbered along the chain they refer to. Names may count otherwise.

B1: variant CD80 IgV-Fc E35D/L97R (Fc fusion)
chain: VIHVTKEVKEVATLSCGHNVSVEELAQTRIYWQKDKKMVLTMMSGDMNIWPEYKNRTIFDITNNLSIVILALRPSDEGTYECVVLKYEKDAFKREHRAEVTLSVKAD
B2: variant CD80 IgV-Fc M47V/N48K/K89N (Fc fusion)
chain: B1 chain with D35E, M47V, N48K, K89N, R97L
B3: variant CD80 IgV-Fc E35D/M47L/A71G/D90G (Fc fusion)
chain: B1 chain with M47L, A71G, D90G, R97L
B4: variant CD80 IgV-Fc H18Y/A26E/M47L/D90G (Fc fusion)
chain: B1 chain with H18Y, A26E, D35E, M47L, D90G, R97L
B5: variant CD80 IgV-Fc A26E/E35D/V68M/D90G (Fc fusion)
chain: B1 chain with A26E, V68M, D90G, R97L
B6: variant CD80 IgV-Fc A26E/V68M/A71G/D90G (Fc fusion)
chain: B1 chain with A26E, D35E, V68M, A71G, D90G, R97L
B7: variant CD80 IgV-Fc H18Y/A26E/V68M/A71G (Fc fusion)
chain: B1 chain with H18Y, A26E, D35E, V68M, A71G, R97L
B8: variant CD80 IgV-Fc H18Y/M47L/V68M/D90G (Fc fusion)
chain: B1 chain with H18Y, D35E, M47L, V68M, D90G, R97L
B9: variant CD80 IgV-Fc A26E/E35D/M47L/D90G (Fc fusion)
chain: B1 chain with A26E, M47L, D90G, R97L
B10: variant CD80 IgV-Fc H18Y/V68M/A71G/D90G (Fc fusion)
chain: B1 chain with H18Y, D35E, V68M, A71G, D90G, R97L
B11: variant CD80 IgV-Fc H18Y/A26E/V68M/D90G (Fc fusion)
chain: B1 chain with H18Y, A26E, D35E, V68M, D90G, R97L
B12: variant CD80 IgV-Fc M47L/V68M/A71G/D90G (Fc fusion)
chain: B1 chain with D35E, M47L, V68M, A71G, D90G, R97L
B13: variant CD80 IgV-Fc A26E/M47L/A71G/D90G (Fc fusion)
chain: B1 chain with A26E, D35E, M47L, A71G, D90G, R97L
B14: variant CD80 IgV-Fc H18Y/A26E/M47L/A71G (Fc fusion)
chain: B1 chain with H18Y, A26E, D35E, M47L, A71G, R97L
B15: CD80 Y53C/L70Q/D90G/T130A/N149D/N152T/H188D ECD-Fc (Fc fusion)
chain: VIHVTKEVKEVATLSCGHNVSVEELAQTRIYWQKEKKMVLTMMSGDMNIWPECKNRTIFDITNNLSIVIQALRPSDEGTYECVVLKYEKGAFKREHLAEVTLSVKADFPTPSISDFEIPTSNIRRIICSASGGFPEPHLSWLENGEELDAITTTVSQDPETELYAVSSKLDFNMTTNHSFMCLIKYGDLRVNQTFNWNTTKQEHFPDN
B16: CD80 R29D/Y31L/Q33H/K36G/M38I/T41A/M43R/M47T/L70Q/D76G/A91G/S103L/I118V/T120S/I127T/T130A ECD-Fc (Fc fusion)
chain: VIHVTKEVKEVATLSCGHNVSVEELAQTDILWHKEGKIVLAMRSGDTNIWPEYKNRTIFDITNNLSIVIQALRPSGEGTYECVVLKYEKDGFKREHLAEVTLLVKADFPTPSISDFEVPSSNIRRITCSASGGFPEPHLSWLENGEELNAINTTVSQDPETELYAVSSKLDFNMTTNHSFMCLIKYGHLRVNQTFNWNTTKQEHFPDN
B17: CD80 R29D/Y31L/Q33H/K36G/M38I/T41A/M43R/M47T/E81V/L85R/K89N/A91T/F92P/K93V/R94L/I118V/T120S/T130A/K169E/M174T ECD-Fc (Fc fusion)
chain: VIHVTKEVKEVATLSCGHNVSVEELAQTDILWHKEGKIVLAMRSGDTNIWPEYKNRTIFDITNNLSIVILALRPSDEGTYVCVVRKYENDTPVLEHLAEVTLSVKADFPTPSISDFEVPSSNIRRIICSASGGFPEPHLSWLENGEELNAINTTVSQDPETELYAVSSELDFNTTTNHSFMCLIKYGHLRVNQTFNWNTTKQEHFPDN
B18: CD80 H18L/R29D/Y31L/Q33H/K36G/M38I/T41A/M43R/M47T/E81V/L85R/K89N/A91T/F92P/K93V/R94L/F116S/T130A/H188D ECD-Fc (Fc fusion)
chain: B17 chain with H18L, F116S, V118I, S120T, E169K, T174M, H188D
B19: CD80 C16S/H18L/R29D/Y31L/Q33H/K36G/M38I/T41A/M43R/M47T/E81V/L85R/K89N/A91T/F92P/K93V/R94L/T110A/I118V/H188D ECD-Fc (Fc fusion)
chain: B17 chain with C16S, H18L, T110A, S120T, A130T, E169K, T174M, H188D
B20: CD80 R29D/Y31L/Q33H/K36G/M38I/T41A/M43R/M47T/L70Q/E81V/K89N/A91T/F92P/K93V/R94L/I118V/T120S/I127T/T130A ECD-Fc (Fc fusion)
chain: B17 chain with L70Q, R85L, I127T, E169K, T174M
B21: CD80 Y53C/L85R/K89N/A91T/F92P/K93V/R94L/I118V/T120S/I127T/T130A/K169E ECD-Fc (Fc fusion)
chain: VIHVTKEVKEVATLSCGHNVSVEELAQTRIYWQKEKKMVLTMMSGDMNIWPECKNRTIFDITNNLSIVILALRPSDEGTYECVVRKYENDTPVLEHLAEVTLSVKADFPTPSISDFEVPSSNIRRITCSASGGFPEPHLSWLENGEELNAINTTVSQDPETELYAVSSELDFNMTTNHSFMCLIKYGHLRVNQTFNWNTTKQEHFPDN

Biological target: human PD-L1 (huPD-L1), on stably transduced CHO cells (human) (UniProt Q9NZQ7)
Sequence (Q9NZQ7 19-290): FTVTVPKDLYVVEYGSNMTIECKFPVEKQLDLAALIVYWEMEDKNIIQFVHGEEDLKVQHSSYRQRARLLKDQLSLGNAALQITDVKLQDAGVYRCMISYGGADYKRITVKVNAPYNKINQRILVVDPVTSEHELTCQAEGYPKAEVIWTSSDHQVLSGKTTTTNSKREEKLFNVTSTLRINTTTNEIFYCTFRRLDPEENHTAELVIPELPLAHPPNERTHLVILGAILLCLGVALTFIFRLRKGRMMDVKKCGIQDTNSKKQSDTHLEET
Assay: flow cytometry on CHO cells stably expressing huPD-L1, 33.3 nM Fc fusion, PE anti-human Fc

MFI at 33.3 nM [MFI]	Binder
2610	B1

Biological target: human PD-L1 (human) (UniProt Q9NZQ7)
Sequence (Q9NZQ7 19-290): as above
Assay: flow cytometry, CHO/huPD-L1 cells; vs WT CD80 ECD-Fc (Abcam)

Fold change to WT CD80 [fold]	Binder
18.5	B2

Biological target: human CTLA-4 (human) (UniProt P16410)
Sequence (P16410 36-223): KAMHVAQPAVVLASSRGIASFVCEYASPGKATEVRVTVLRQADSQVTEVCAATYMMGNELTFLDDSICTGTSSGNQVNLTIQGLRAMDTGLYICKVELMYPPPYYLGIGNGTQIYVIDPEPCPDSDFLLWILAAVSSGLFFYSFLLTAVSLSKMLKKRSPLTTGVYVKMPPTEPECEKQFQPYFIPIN
Assay: flow cytometry, CHO/huCTLA-4 cells; vs WT CD80 ECD-Fc (Abcam)

Fold change to WT CD80 [fold]	Binder
1	B2

Biological target: human PD-L1 (human) (UniProt Q9NZQ7)
Assay: flow cytometry; PD-L1 MFI over CD28 MFI of the same protein

Ratio of PDL1:CD28	Binder
6.5	B2

Biological target: human PD-L1 (human) (UniProt Q9NZQ7)
Assay: flow cytometry, MFI on PD-L1 cells over MFI on CD28 cells

Ratio of PDL1:CD28	Binder
9.1	B3
3.1	B4
4.2	B5
2.7	B6
69.1	B7
5.7	B8
6.2	B9
9	B10
5.4	B11
8.6	B12
6.8	B13
25.5	B14

Biological target: CD28 (human) (UniProt P10747)
Assay: flow cytometry, Jurkat/IL2 reporter cells (CD28)

MFI at 33.3 nM [MFI]	Binder
366	B2

Biological target: human PD-L1 (human) (UniProt Q9NZQ7)
Assay: flow cytometry, CHO cells expressing huPD-L1

MFI at 33.3 nM [MFI]	Binder
2370	B2

Biological target: human CTLA-4 (human) (UniProt P16410)
Assay: flow cytometry, CHO cells stably expressing CTLA4

Fold change to WT CD80 [fold]	MFI at 33.3 nM [MFI]	Binder
15.4	20900	B3
17.3	23500	B4
10.2	13900	B5
6.4	8670	B6
8.3	11300	B7
14	19000	B8
13.4	18200	B9
16.4	22300	B10
19	25800	B11
12.8	17400	B12
16.2	22000	B13
16.3	22100	B14

Biological target: human PD-L1 (human) (UniProt Q9NZQ7)
Assay: flow cytometry, CHO cells stably expressing PD-L1

Fold change to WT CD80 [fold]	MFI at 33.3 nM [MFI]	Binder
277	12100	B3
205	8930	B4
160	6990	B5
73.3	3200	B6
158	6870	B7
499	21800	B8
220	9580	B9
703	30700	B10
295	12800	B11
714	31100	B12
303	13200	B13
357	15600	B14

Biological target: human CTLA-4 (huCTLA4), on stably transduced CHO cells (human) (UniProt P16410)
Sequence (P16410 36-223): as above
Assay: flow cytometry on CHO cells stably expressing huCTLA4, 33.3 nM Fc fusion, PE anti-human Fc

MFI at 33.3 nM [MFI]	Binder
22800	B1

Biological target: CD28, endogenously expressed on Jurkat/IL2 reporter cells (human) (UniProt P10747)
Assay: flow cytometry on Jurkat/IL2 reporter cells (endogenous CD28), 33.3 nM Fc fusion, PE anti-human Fc

MFI at 33.3 nM [MFI]	Binder
44.6	B1

Biological target: human CTLA-4 (human) (UniProt P16410)
Assay: flow cytometry, transfected Expi293F cells

MFI	parental ratio	Binder
3110	0.01	B15
1730	0.01	B16
2490	0.01	B17
2090	0.01	B18
1800	0.01	B19
2120	0.01	B20
1460	0.01	B21

Biological target: human PD-L1 (human) (UniProt Q9NZQ7)
Assay: flow cytometry, transfected Expi293F cells

MFI	parental ratio	Binder
3290	0.04	B15
3510	0.04	B16
158000	0.06	B17
110000	0.03	B18
4500	0.03	B19
14200	0.05	B20
2550	0.03	B21

Biological target: CD28 (human) (UniProt P10747)
Assay: flow cytometry, transfected Expi293F cells

MFI	parental ratio	Binder
1990	0.04	B15
1910	0.04	B16
2740	0.06	B17
1240	0.03	B18
1210	0.03	B19
2110	0.05	B20
1400	0.03	B21

Biological target: human CTLA-4 (human) (UniProt P16410)
Assay: flow cytometry, CHO cells expressing huCTLA-4

MFI at 33.3 nM [MFI]	Binder
42100	B2

Biological target: CD28 (human) (UniProt P10747)
Assay: flow cytometry, Jurkat cells (CD28); vs WT CD80 ECD-Fc (Abcam)

Fold change to WT CD80 [fold]	Binder
0.5	B2

Biological target: CD28 (human) (UniProt P10747)
Assay: flow cytometry, Jurkat cells (CD28)

Fold change to WT CD80 [fold]	MFI at 33.3 nM [MFI]	Binder
30.3	1330	B3
65.1	2860	B4
38.3	1680	B5
27.2	1190	B6
2.3	99.4	B7
86.4	3800	B8
35.3	1550	B9
77.8	3410	B10
54.5	2390	B11
82.2	3610	B12
44.5	1960	B13
13.9	611	B14
